Read-outs that look alike come from different tables or passages of the source.
How the values were obtained:
VDRnuc = conditions: Norman et al. 2001, p. 51; cited from earlier work
[1] = human, in vivo, cited from earlier work
Solubility in PBS (A280) = assay type: physicochemical
Procedure: PEG Length and Counterion Affects Solubility: The solubility of the acetate and carbonate salt form of each compound was determined as follows. For EXT611, EXT606, and EXT608, phosphate buffered saline (PBS) was added to each compound to form a saturated solution. Undissolved compound was removed by centrifugation. The concentration of dissolved compound was determined by measuring the absorbance at 280 nm using an extinction coefficient of 18,600 M^−1 cm^−1. For EXT615, EXT616, and EXT617, solubility was limited practically by the high viscosity imparted by the large PEG moieties. Highly viscous drug formulations are difficult to manipulate and require large needle bore sizes that cause increased injection site pain. PBS was added to EXT615, EXT616, and EXT617 incrementally until a solution was obtained that could be successfully pipetted through a pipet tip with a bore of approximately 1 mm diameter (enlarged by removing the end with a razor blade). The concentration of dissolved compound was determined by measuring the absorbance at 280 nm using an extinction coefficient of 18,600 M^−1 cm^−1. […] For EXT608, the acetate salt was 17.6-fold more soluble than the carbonate salt.

DBP = molecular target: T1, DBP (Homo sapiens, UniProt P02774); conditions: Norman et al. 2001, p. 51; cited from earlier work
T1 sequence (P02774 17-474): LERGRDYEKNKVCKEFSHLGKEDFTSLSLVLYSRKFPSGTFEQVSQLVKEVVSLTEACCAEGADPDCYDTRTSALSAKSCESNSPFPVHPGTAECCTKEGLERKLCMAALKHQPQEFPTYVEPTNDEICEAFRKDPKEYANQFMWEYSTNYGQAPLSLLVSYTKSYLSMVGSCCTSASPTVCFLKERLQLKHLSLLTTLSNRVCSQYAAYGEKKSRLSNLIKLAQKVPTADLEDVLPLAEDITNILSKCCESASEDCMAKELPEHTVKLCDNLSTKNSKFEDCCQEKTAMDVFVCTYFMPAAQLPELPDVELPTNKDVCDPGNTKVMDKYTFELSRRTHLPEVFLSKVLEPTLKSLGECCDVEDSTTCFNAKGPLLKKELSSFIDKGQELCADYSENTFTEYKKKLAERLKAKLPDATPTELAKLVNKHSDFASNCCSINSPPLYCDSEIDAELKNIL

Molecule: C=C1/C(=C\C=C2/CCC[C@]3(C)[C@@H]([C@H](C)CCCC(C)(C)O)CC[C@@H]23)C[C@@H](O)C[C@@H]1O [1α,25(OH)2D3, 1,25-dihydroxyvitamin D3]
- fold tighter binding to VDRnuc than 25(OH)D3 (VDRnuc): 668 fold

Molecule: PTH: Parathyroid hormone, polypeptide containing 84 amino acids (SEQ ID NO:2); literature half-life values
- plasma half-life ([1]; iv): less than 15 minutes
- serum half-life ([1]; iv): approximately 5 minutes
- apparent half-life ([1]; sc): 1.5 to 2.5 h
- plasma half-life (estimated) ([1]; sc): 2 to 3 h

Molecule: C=C1CC[C@H](OCCCNC(=O)CCOCCOCCOCCOCCOCCOCCOCCOCCOCCOCCOCCOCCOCCOCCOCCOCCOCCOCCOCCOCCOCCOCCOCCOCCNC(=O)CCN2C(=O)CC(SC[C@H](NC(=O)[C@H](Cc3ccccc3)NC(=O)[C@H](CC(N)=O)NC(=O)[C@H](Cc3c[nH]cn3)NC(=O)[C@@H](NC(=O)[C@H](CC(=O)O)NC(=O)[C@H](CCC(N)=O)NC(=O)[C@H](CC(C)C)NC(=O)[C@H](CCCCN)NC(=O)[C@H](CCCCN)NC(=O)[C@H](CCCNC(=N)N)NC(=O)[C@H](CC(C)C)NC(=O)[C@H](Cc3c[nH]c4ccccc34)NC(=O)[C@H](CCC(=O)O)NC(=O)[C@@H](NC(=O)[C@H](CCCNC(=N)N)NC(=O)[C@H](CCC(=O)O)NC(=O)[C@H](CCSC)NC(=O)[C@H](CO)NC(=O)[C@H](CC(N)=O)NC(=O)[C@H](CC(C)C)NC(=O)[C@H](Cc3c[nH]cn3)NC(=O)[C@H](CCCCN)NC(=O)CNC(=O)[C@H](CC(C)C)NC(=O)[C@H](CC(N)=O)NC(=O)[C@H](Cc3c[nH]cn3)NC(=O)[C@H](CCSC)NC(=O)[C@H](CC(C)C)NC(=O)[C@H](CCC(N)=O)NC(=O)[C@@H](NC(=O)[C@H](CCC(=O)O)NC(=O)[C@H](CO)NC(=O)[C@@H](NC(=O)[C@@H](N)CO)C(C)C)[C@@H](C)CC)C(C)C)C(C)C)C(N)=O)C2=O)C/C1=C/C=C1\CCC[C@]2(C)[C@@H]([C@H](C)CCCC(C)(C)O)CC[C@@H]12 (some centres unmarked) [EXT606]
- solubility (Solubility in PBS (A280); acetate salt, read-out: Solubility as Acetate): 907 µM
- solubility (Solubility in PBS (A280); carbonate salt, read-out: Solubility as Carbonate): 200 µM

Molecule: 25-hydroxyvitamin D [25(OH)D3]
- fold tighter binding to DBP than 1α,25(OH)2D3 (DBP): 668 fold

Source: patent publication US12233115B2, “Long-acting parathyroid hormone” (Extend Biosciences, Inc., priority 2022, dated 2025)
